Measured values as given in the RNAGym collection of RNA variant scans (doi:10.1073/pnas.2313332121).

B1: TPR t1 (parent)
chain: GACCAAUCUGCCCUCAGAGCUCGAGAACAUCUUCGGAUGCAGAGGAGGCAGGCUUCGGUGGCGCGAUAGCGCCAACGUCCUCAACCUCCAAUGCAUCCCACCACAUGAUGAUGCCUGAAGAGCCUUGGUUUUUUG

Variants of: B1
Assay: polymerase ribozyme fitness, log enrichment relative to wild type (log ratio); higher = more active; in vitro selection for triplet polymerase activity
How it was run: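 Genotype fitness is the logarithm of its enrichment divided by wild-type enrichment, using inverse-variance-weighted averages of replicates. That logarithm is base 2. Enrichment was measured by Illumina sequencing of input and output libraries from one triplicate in vitro selection round, with frozen incubation at −7 °C, on PCR-built, transcribed mutant libraries of each subunit of a heterodimeric triplet polymerase ribozyme, retaining genotypes with ≥10 input reads and ≥1 read per output.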

Row | Variant | polymerase ribozyme fitness (log ratio)
1 | G10U C34A G47A | -3.85
2 | C11A G93U | -1.93
3 | G10U G63C | -0.933
4 | G10U G63A | -1.08
5 | C11A C49G C64U A121U | 0.957
6 | C11A C13U C53G A90C A91G | -3.8
7 | C11A G107U G122A | -3.88
8 | C11A G45U C64A U78A A95C G113U | -7.43
9 | C11A G42C A118G | -3.71
10 | G10U C40A G77A G128U | -3.6
11 | G10U C12G G17U G113A U126G | -4.16
12 | C11A G61A C62A C80U G113C | -7.76
13 | G10U C11U C73A C88A U126C | -2.02
14 | C11A G71C U125G G135U | -3.28
15 | G10U C70U U78C C82G | -2.45
16 | C11A G39A A43U U59C A91C G113A A118G C124G U125A | -4.98
17 | C11A G69A C82U | -3.91
18 | G10U C28U | -2.12
19 | C11A G69C | -2.03
20 | G10U G17U C56U U109A G110C A118G C123A | -6.9
21 | C11A C20U | -1.95
22 | C11A C53U C56A C76G | -3.44
23 | C11A C82A | -2.13
24 | G10U C40U G52U C64U | -1.92

Row | Variant | polymerase ribozyme fitness (log ratio)
25 | G10U C53G U55A C56A G63A | -2.18
26 | G10U U59A G71U | -2.51
27 | C11A C13U C53A | -1.65
28 | C11A G17U U112A U131G | -3.56
29 | G10U C12A C56A C72A C82A | -1.27
30 | G10U U30C | -2.43
31 | G10U C15G U21A A90G G93U G120C G135U | -3.07
32 | G10U G48U | -0.243
33 | G10U G44U C53U U96A U109C | -7.37
34 | G10U G44A G52U G122A C123U C124G U130G | -1.61
35 | C11A A41U G47A U109A | -5.79
36 | C11A C12G A27U G63U G77A | -5.74
37 | G10U C15A G61U A75C G117A | -3.07
38 | C11A C73G | -1.79
39 | C11A G77U | -2.4
40 | G10U G42U | -2.78
41 | G10U U92G | -3.71
42 | G10U U92C | -0.873
43 | C11A C12U U38A G69C | -2.89
44 | C11A U54G | -2.05
45 | C11A C13G G36U | -2.87
46 | C11A C72A A91G C101U G113C U132C | -4.14
47 | C11A G47A | -3.21
48 | G10U U30C C124G | -2.38

Row | Variant | polymerase ribozyme fitness (log ratio)
49 | G10U C40G G48U C102U | -3.36
50 | C11A C40U | -2.35
51 | C11A U30C G47A G63A A121G U131A | -3.75
52 | C11A C34A C88G U106C | -5.02
53 | G10U C13U G48A G61A A83U C98U G117A | -2.09
54 | G10U G71A | -0.104
55 | G10U G71U | -0.746
56 | G10U C20A G42A G93U C115U | -3.5
57 | G10U G42U C104A G120C | -4.1
58 | G10U C13A A41C G71A C85U | -3.61
59 | C11A G113U | -3.17
60 | G10U C88G G110C | -5.78
61 | G10U G69U U112G C123G | 1.15
62 | C11A U33G U54A C70U A95C U112A | -6.99
63 | G10U C80U | -0.415
64 | C11A G113U G122U | -2.8
65 | G10U C72A C124G | 1
66 | C11A A91C | -2.43
67 | G10U G113C G120U A121C | -2.24
68 | G10U G128U U132C | -0.604
69 | G10U C12U A43U A118U | -0.927
70 | G10U C13G | 0.0488
71 | G10U C11G U14A A37G C76U G93C C102A | -5.35
72 | C11A C53G G69U C72U | -1.37

Row | Variant | polymerase ribozyme fitness (log ratio)
73 | G10U A84G G120A U125G | 0.926
74 | C11A G36U G48C C62G C115A G120C | -4.4
75 | G10U C114A U125A G135U | -3.39
76 | G10U C20A C56U | -2.94
77 | C11A C12G C73A C104U G120A | -1.09
78 | G10U G52U G61U G127A | -2.92
79 | C11A U33G G52U C56U C64G G120C | -6.81
80 | G10U C40G U96G | -4.29
81 | G10U G63U G113C | -4.79
82 | C11A C64U U106A A108U | -3.91
83 | G10U G60A C123G C124A | 3.33
84 | C11A G47U C56A C86A U106G | -3.84
85 | C11A C12A | -1.15
86 | C11A C12U | -0.179
87 | G10U C13G G45U C72A A91G C102A A118U C124G U132A U133C | -3.66
88 | C11A G47A G61U A105U U126A | -5.18
89 | G10U G48U G63A C85U C86G | -3.3
90 | G10U C85U | -0.736
91 | C11A U21A A50C | -1.95
92 | G10U G93A | -0.609
93 | G10U A105C | -2.95
94 | C11A G60A C101A C124G | 0.624
95 | C11A G61C A100C A121U | -1.61
96 | G10U C56G A68G | -4.36

Row | Variant | polymerase ribozyme fitness (log ratio)
97 | C11A C85U | -1.28
98 | G10U G42U C89U | -1.96
99 | G10U U14A G113C G122A | -3.62
100 | C11A C53U C76U C80G G117C | -7.25
101 | C11A A29G C56G A91C U112A A121G G122C | -1.75
102 | C11A A29U U59A C70A G120A | -1.52
103 | C11A A118G | -1.55
104 | C11A G61A | -1.4
105 | C11A G61U | -1.39
106 | C11A U38G G48C C115G G122U | -2.9
107 | C11A G71U A91G A121U | 0.632
108 | C11A C94U | -1.19
109 | G10U U30C U33C G71U C79U C101A C102G A111U | -7.18
110 | C11A C49G G60A G93U | -2.13
111 | C11A C40A A74G G135U | -2.09
112 | G10U G51C U106C | -3.5
113 | C11A C53U U129A | -2.66
114 | G10U A118U | -0.131
115 | G10U G23A U30G U32A G35U G51A C70G | -6.22
116 | C11A C28G C80U | -3.39
117 | C11A C56A C89U | -1.96
118 | G10U C22A A119U | -5.31
119 | G10U C15U G69U A91C U125A | -3.03
120 | C11A C115U | -2.42

Row | Variant | polymerase ribozyme fitness (log ratio)
121 | C11A G57U G93U | -3.77
122 | G10U C22U C98U | -5.53
123 | G10U C88U | -0.654
124 | C11A C12U G25U C56U G69C C98U G110A | -6.12
125 | C11A A24C G122A C123G | -5.76
126 | C11A C49G G60A A75U G93U | -3.77
127 | G10U U38G C70A C73U C123A U130G | -3.12
128 | G10U C20U A43C A50C C79G C88U A121G | -4.86
129 | C11A C13U G63U | -2.94
130 | G10U G17A C56G C62U C79U | -4.53
131 | C11A C101A | -3.16
132 | C11A C72U U78C C82G C101A A121C | -0.882
133 | C11A G120A | 0.576
134 | G10U C28U G63A | -4.31
135 | C11A A84G | -2.26
136 | C11A G61U C102U | -3.03
137 | C11A C124A | 1.26
138 | C11A C13U G60C A100C U132C | -2.62
139 | C11A A29U U59A C70U G120A | -1.3
140 | C11A G113C G135U | -4.88
141 | G10U U59C C85U | -0.716
142 | C11A C13U G63C A83U | -1.91
143 | G10U C89A G117U | -4.64
144 | G10U G93U U129C | -1.98

Row | Variant | polymerase ribozyme fitness (log ratio)
145 | G10U G61C | -1.82
146 | C11A G48U U96G U112C | -1.36
147 | G10U C64U G113C | -1.87
148 | G10U U14A C40A | -2.63
149 | G10U C49U G63A A100C | -3.83
150 | C11A C76A | -2.77
151 | C11A U30C G63U C64U U81A C104G A111U A119G U132C | -6.95
152 | G10U C34G G65U A66C C123U U125A G128U | -7.34
153 | G10U C82U | -0.583
154 | C11A G113A C114U U133G | -5
155 | C11A C13G C31U A46U U109G | -7.98
156 | G10U C115G | -1.99
157 | G10U C115A | -0.281
158 | G10U G60U U112A C114U | -1.17
159 | C11A G39U G71A | -2.63
160 | C11A G42A U54A C64U U129C | -4.74
161 | G10U C56U G117C G122U | -3.32
162 | C11A G47A G77C A84G G128A | -4.94
163 | C11A A16U C40U C56A | -4.65
164 | G10U A103U | -4.38
165 | G10U G36A | -0.638
166 | G10U C72G A91G | -1.95
167 | C11A C13U | -1.75
